# In publication PMC6817362:
# Molecular target: Recombinant mouse SIGN-R1 Fc chimera protein, extracellular domain (mouse) (UniProt Q8CJ91)
# Assay: SPR
# Sequence of UniProt Q8CJ91 (Q8CJ91 74-325, change not shown): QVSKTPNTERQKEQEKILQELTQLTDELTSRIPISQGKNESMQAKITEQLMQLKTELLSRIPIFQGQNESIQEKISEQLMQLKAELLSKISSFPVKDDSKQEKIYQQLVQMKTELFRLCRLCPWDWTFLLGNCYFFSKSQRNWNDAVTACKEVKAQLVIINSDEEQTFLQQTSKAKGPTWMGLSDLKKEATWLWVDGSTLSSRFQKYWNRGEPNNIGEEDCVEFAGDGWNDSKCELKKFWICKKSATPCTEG
substance,measurement,value
Hemagglutinin HA from Influenza A H1N1 (A/Puerto Rico/8/34) (from UniProt P03452) (natural protein),Kd,0.142 µM
